# Test results reported in IntAct's records for PubMed 11880648.
# B1: RNA polymerase sigma factor SigA (Mycobacterium tuberculosis (strain ATCC 25618 / P9WGI1 (parent)
# chain: MAATKASTATDEPVKRTATKSPAASASGAKTGAKRTAAKSASGSPPAKRATKPAARSVKPASAPQDTTTSTIPKRKTRAAAKSAAAKAPSARGHATKPRAPKDAQHEAATDPEDALDSVEELDAEPDLDVEPGEDLDLDAADLNLDDLEDDVAPDADDDLDSGDDEDHEDLEAEAAVAPGQTADDDEEIAEPTEKDKASGDFVWDEDESEALRQARKDAELTASADSVRAYLKQIGKVALLNAEEEVELAKRIEAGLYATQLMTELSERGEKLPAAQRRDMMWICRDGDRAKNHLLEANLRLVVSLAKRYTGRGMAFLDLIQEGNLGLIRAVEKFDYTKGYKFSTYATWWIRQAITRAMADQARTIRIPVHMVEVINKLGRIQRELLQDLGREPTPEELAKEMDITPEKVLEIQQYAREPISLDQTIGDEGDSQLGDFIEDSEAVVAVDAVSFTLLQDQLQSVLDTLSEREAGVVRLRFGLTDGQPRTLDEIGQVYGVTRERIRQIESKTMSKLRHPSRSQVLRDYLD
# partner: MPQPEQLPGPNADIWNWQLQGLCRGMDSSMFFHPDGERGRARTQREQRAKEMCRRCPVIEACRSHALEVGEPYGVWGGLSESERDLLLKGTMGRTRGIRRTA
# Variants of: B1
# Conditions: with whib3_myctu whiB3, P9WF41
row,Variant,effect of a mutation on the interaction
1,R515H,disrupting interaction strength
